Read-outs that look alike come from different tables or passages of the source.
Key:
[1] = molecular target: CH505 w030.28 gp120 (HIV-1); experiment: ELISA, gp120 on plate
[2] = molecular target: CH505 M11 gp120 (HIV-1); experiment: ELISA, gp120 on plate
[3] = molecular target: CH505 w078.33 gp120 (HIV-1); experiment: ELISA, gp120 on plate
[4] = molecular target: CH505 w078.15 gp120 (HIV-1); experiment: ELISA, gp120 on plate
[5] = molecular target: CH505 w053.31 gp120 (HIV-1); experiment: ELISA, gp120 on plate
[6] = molecular target: CH505 transmitted/founder (TF) gp120 (HIV-1); experiment: ELISA, gp120 on plate
[7] = molecular target: CH505 w053.16 gp120 (HIV-1); experiment: ELISA, gp120 on plate
[8] = molecular target: CH505 M5 gp120 (HIV-1); experiment: ELISA, gp120 on plate
[9] = molecular target: CH505 w100.B6 gp120 (HIV-1); experiment: ELISA, gp120 on plate
[10] = molecular target: CH505 w030.21 gp120 (HIV-1); experiment: ELISA, gp120 on plate
[11] = molecular target: CH505 w020.14 gp120 (HIV-1); experiment: ELISA, gp120 on plate
[12] = molecular target: HIV-1 Env 426c.TM (N276D.N460D.N463D), Env-pseudotyped virus produced in 293S GnTI- cells (Man5-enriched) (HIV-1 clade C strain 426c); experiment: cell-based or functional assay
[13] = molecular target: HIV-1 Env 426c.SM (N276D), Env-pseudotyped virus produced in 293T cells (HIV-1 clade C strain 426c); experiment: cell-based or functional assay
[14] = molecular target: CH0505TF.gly3.276 Env, Env-pseudotyped virus produced in 293T cells (HIV-1); experiment: cell-based or functional assay
[15] = molecular target: HIV-1 CH0505TF.N280D Env on Env-pseudotyped virus produced in 293S GnTI- cells (HIV-1); experiment: cell-based or functional assay
[16] = molecular target: HIV-1 CH0505TF.G458Y Env on Env-pseudotyped virus produced in 293T cells (HIV-1); experiment: cell-based or functional assay
[17] = molecular target: HIV-1 CH0505TF.S365P Env on Env-pseudotyped virus produced in 293T cells (HIV-1); experiment: cell-based or functional assay
[18] = molecular target: HIV-1 CH0505TF (CH505 transmitted/founder) Env on Env-pseudotyped virus produced in 293T cells (HIV-1); experiment: cell-based or functional assay
[19] = molecular target: HIV-1 CH0505TF.S365P Env on Env-pseudotyped virus produced in 293S GnTI- cells (HIV-1); experiment: cell-based or functional assay
[20] = molecular target: HIV-1 CH0505TF.G458Y Env on Env-pseudotyped virus produced in 293S GnTI-/- cells (Man5-enrichment) (HIV-1); experiment: cell-based or functional assay
[21] = molecular target: HIV-1 CH0505TF.N280D Env on Env-pseudotyped virus produced in 293T cells (HIV-1); experiment: cell-based or functional assay
[22] = molecular target: HIV-1 CH0505TF Env on Env-pseudotyped virus produced in 293S/GnTI-/- cells (Man5-enrichment) (HIV-1); experiment: cell-based or functional assay
[23] = molecular target: CH0505TF G458W Env, pseudotyped virus produced in 293S GnTI- cells (HIV-1); experiment: cell-based or functional assay
[24] = molecular target: CH0505TF.gly4.G458Y Env, pseudotyped virus produced in 293S GnTI- cells (HIV-1); experiment: cell-based or functional assay
[25] = molecular target: CH0505TF G458D Env, pseudotyped virus produced in 293S GnTI- cells (HIV-1); experiment: cell-based or functional assay
[26] = molecular target: HIV-1 CH0505TF.G458Y Env on Env-pseudotyped virus produced in 293T cells (HIV-1); experiment: cell-based or functional assay; remark: listed apart in the source
[27] = molecular target: CH0505TF G458S Env, pseudotyped virus produced in 293S GnTI- cells (HIV-1); experiment: cell-based or functional assay
[28] = molecular target: CH0505TF G458L Env, pseudotyped virus produced in 293S GnTI- cells (HIV-1); experiment: cell-based or functional assay
[29] = molecular target: HIV-1 CH0505TF.G458Y Env on Env-pseudotyped virus produced in 293S GnTI-/- cells (Man5-enrichment) (HIV-1); experiment: cell-based or functional assay; remark: listed apart in the source
[30] = molecular target: CH0505TF G458F Env, pseudotyped virus produced in 293S GnTI- cells (HIV-1); experiment: cell-based or functional assay
[31] = molecular target: CH0505TF G458R Env, pseudotyped virus produced in 293S GnTI- cells (HIV-1); experiment: cell-based or functional assay
[32] = molecular target: CH0505TF G458E Env, pseudotyped virus produced in 293S GnTI- cells (HIV-1); experiment: cell-based or functional assay
[33] = molecular target: CH0505TF G458C Env, pseudotyped virus produced in 293S GnTI- cells (HIV-1); experiment: cell-based or functional assay
[34] = molecular target: CH0505TF.gly4.G458Y Env, pseudotyped virus produced in 293T cells (HIV-1); experiment: cell-based or functional assay
[35] = molecular target: CH0505TF G458Y.N280D Env, pseudotyped virus produced in 293S GnTI- cells (HIV-1); experiment: cell-based or functional assay
[36] = molecular target: CH0505TF G458K Env, pseudotyped virus produced in 293S GnTI- cells (HIV-1); experiment: cell-based or functional assay
[37] = molecular target: CH505 M5 gp120 (HIV-1); experiment: method not named in the legend (FIG. 59F); GMP M5 gp120

Substance	log AUC [1] [log AUC]	log AUC [2] [log AUC]	log AUC [5] [log AUC]	log AUC [8] [log AUC]	log AUC [11] [log AUC]	IC50 (µg/ml) in TZM-bl [12] [µg/mL]	IC50 (µg/ml) in TZM-bl [13] [µg/mL]	IC50 (µg/ml) in TZM-bl [14] [µg/mL]	IC50 (µg/ml) in TZM-bl [15] [µg/mL]	IC50 (µg/ml) in TZM-bl [16] [µg/mL]	IC50 (µg/ml) in TZM-bl [17] [µg/mL]	IC50 (µg/ml) in TZM-bl [18] [µg/mL]	IC50 (µg/ml) in TZM-bl [19] [µg/mL]	IC50 (µg/ml) in TZM-bl [21] [µg/mL]	IC50 (µg/ml) in TZM-bl [22] [µg/mL]	other results
CH103 (antibody)	12.8	13.4	13.6	9.8	12.6	0.09	> 40	0.014	0.24	5.8	> 50	1.9	1.7	1.2	0.57	log AUC [3]: 11.1 log AUC; log AUC [4]: 10.7 log AUC; log AUC [6]: 12.6 log AUC; log AUC [7]: 11.6 log AUC; log AUC [9]: 7.1 log AUC; log AUC [10]: 12.2 log AUC; IC50 (µg/ml) in TZM-bl [20]: 0.44 µg/mL
CH235 (antibody)	6.7	7.6	1.1	11.4	9.9	> 25	> 50	0.034	3.4	0.1	0.6	0.3	0.02	> 25	0.03	IC50 (µg/ml) in TZM-bl cells [23]: < 0.005 µg/mL; IC50 (µg/ml) in TZM-bl cells [24]: < 0.005 µg/mL; IC50 (µg/ml) in TZM-bl cells [25]: 0.011 µg/mL; IC50 (µg/ml) in TZM-bl [26]: 0.2 µg/mL; IC50 (µg/ml) in TZM-bl cells [27]: 0.005 µg/mL; IC50 (µg/ml) in TZM-bl cells [28]: 0.015 µg/mL; IC50 (µg/ml) in TZM-bl [29]: < 0.02 µg/mL; IC50 (µg/ml) in TZM-bl cells [30]: < 0.005 µg/mL; IC50 (µg/ml) in TZM-bl cells [31]: < 0.005 µg/mL; IC50 (µg/ml) in TZM-bl cells [32]: 0.012 µg/mL; IC50 (µg/ml) in TZM-bl cells [33]: 0.009 µg/mL; IC50 (µg/ml) in TZM-bl cells [34]: 0.064 µg/mL; IC50 (µg/ml) in TZM-bl cells [35]: 2.69 µg/mL; IC50 (µg/ml) in TZM-bl cells [36]: 0.022 µg/mL; Kd [37]: 8 nM
